Results published in US20040018971A1 (published 2004).

Experiments:
[1] = target: T1, HLA-A*6801 (purified HLA class I molecule) (human); assay: competition vs 125I standard peptide, purified HLA
T1 construct: Purified MHC molecule

[2] = target: HLA-A*0301 (purified HLA class I molecule) (human); assay: competition vs 125I standard peptide, purified HLA
[3] = target: T2, HLA-A*1101 (purified HLA class I molecule) (human); assay: competition vs 125I standard peptide, purified HLA
T2 construct: Purified MHC molecule

[4] = target: T3, HLA-A*3301 (purified HLA class I molecule) (human); assay: competition vs 125I standard peptide, purified HLA
T3 construct: Purified MHC molecule

[5] = target: T4, HLA-A*3101 (purified HLA class I molecule) (human); assay: competition vs 125I standard peptide, purified HLA
T4 construct: Purified MHC molecule

HLA-A*0201 = target: T5, HLA-A*0201 (human); assay: competitive inhibition of 125I-labeled probe peptide binding to purified HLA-A*0201
T5 construct: also called HLA-A2.1; A2.1

HLA-A*3101 = HLA-A*3101 (human); assay: inhibition of 125I-labelled standard peptide binding to purified HLA, gel filtration
HLA-A*6801 = HLA-A*6801 (human); assay: as above
HLA-A*1101 = HLA-A*1101 (human); assay: as above
HLA-A*0301 = HLA-A*0301 (human); assay: as above
HLA-A*3301 = HLA-A*3301 (human); assay: as above
HLA-A*0101 [6] = target: T6, HLA-A*0101 (human); assay: competition with a 125I-labelled probe peptide for purified HLA-A*0101, gel filtration; ratio against the A*0101 standard peptide 944.02 [..] (25 nM)
T6 construct: Purified HLA molecule, 5 to 500 nM in the assay; also called HLA-A1

HLA-DRB1*0101 = target: T7, HLA-DRB1*0101 (human); assay: competition with 125I probe peptide, purified HLA
T7 construct: also called DR1

[7] = target: T8, HLA-A*0301 (purified HLA class I molecule) (human); assay: inhibition of 125I probe peptide binding to purified HLA; ratio to standard peptide; minus sign not explained
T8 construct: also called A3

[8] = target: HLA-A*1101 (purified HLA class I molecule) (human); assay: inhibition of 125I probe peptide binding to purified HLA; ratio to standard peptide
HLA-A*0101 [9] = target: T9, HLA-A*0101 (human); assay: competition with 125I-labelled probe peptide for purified HLA-A*0101, gel filtration
T9 construct: also called HLA-A1

B1: HER2/neu peptide, position 668, 9 amino acids (peptide)
peptide: GVVFGILIK
In the case of B1, the relative binding ratio [1] is reported as 0.0011 ratio (IC50 standard/IC50 test), the relative binding ratio [2] is reported as 0.0047 ratio (IC50 standard/IC50 test) and the relative binding ratio [3] is reported as 0.089 ratio (IC50 standard/IC50 test). The relative binding ratio [4] was 0.0025 ratio (IC50 standard/IC50 test) and the relative binding ratio [5] was 0.0019 ratio (IC50 standard/IC50 test).

B2: Her2/neu.5 (peptide)
peptide: ALCRWGLLLA
Binder B2 has an IC50 (HLA-A*0201) of no more than 500 nM.

B3: HER2/neu peptide, position 24, 9 amino acids (peptide)
peptide: QVCTGTDMK
notes: Synthetic A3 supermotif peptide
With B3 the relative binding ratio (HLA-A*3101) was 0.0002 ratio (IC50 of standard peptide / IC50 of test peptide), the relative binding ratio (HLA-A*6801) was 0.011 ratio (IC50 of standard peptide / IC50 of test peptide) and the relative binding ratio (HLA-A*1101) was 0.052 ratio (IC50 of standard peptide / IC50 of test peptide). For the same binder, the relative binding ratio (HLA-A*0301) was 0.0007 ratio (IC50 of standard peptide / IC50 of test peptide) and the relative binding ratio (HLA-A*3301) was 0.0006 ratio (IC50 of standard peptide / IC50 of test peptide).

B4: HER2/neu peptide, position 673, 9 amino acids (peptide)
peptide: ILIKRRQQK
B4 was tested, and the relative binding ratio [1] was 0.0001 ratio (IC50 standard/IC50 test), the relative binding ratio [2] was 0.38 ratio (IC50 standard/IC50 test) and the relative binding ratio [3] was 0.0097 ratio (IC50 standard/IC50 test). For the same binder, the relative binding ratio [4] was 0.0064 ratio (IC50 standard/IC50 test) and the relative binding ratio [5] was 0.076 ratio (IC50 standard/IC50 test).

B5: HER2/neu peptide, position 399, 11 amino acids (peptide)
peptide: VFETLEEITGY
notes: also called Her2/neu.399
For B5, the “relative binding ratio (IC50 of standard peptide / IC50 of test peptide)” value (HLA-A*0101 [6]) was 0.0045 ratio.

B6: Her2/neu.106 (peptide)
peptide: QLFEDNYALA
B6 showed an IC50 (HLA-A*0201) of no more than 500 nM.

B7: HER2/neu peptide, position 1103, 10 amino acids (peptide)
peptide: THDPSPLQRY
notes: also called Her2/neu.1103
For B7, the “relative binding ratio (IC50 of standard peptide / IC50 of test peptide)” value (HLA-A*0101 [6]) was 0.0015 ratio.

B8: HER2/neu peptide, position 714, 9 amino acids (peptide)
peptide: ILKETELRK
For B8, the relative binding ratio [1] was 0.0001 ratio (IC50 standard/IC50 test), the relative binding ratio [2] was 0.019 ratio (IC50 standard/IC50 test) and the relative binding ratio [3] was 0.0023 ratio (IC50 standard/IC50 test). For the same binder, the relative binding ratio [4] was 0.001 ratio (IC50 standard/IC50 test) and the relative binding ratio [5] was 0.0009 ratio (IC50 standard/IC50 test).

B9: Her2/neu.30 (peptide)
peptide: DMKLRLPASPETHLD
In the case of B9, the IC50 (HLA-DRB1*0101) is reported as 5000 nM.

B10: HER2/neu peptide, position 1038, 9 amino acids (peptide)
peptide: GAGGMVHHR
notes: also called Her2/neu.1038 (9-mer)
For B10, the relative binding ratio [7] was -0.0002 ratio (IC50 standard / IC50 test) and the relative binding ratio [8] was 0.0043 ratio (IC50 standard / IC50 test).

B11: HER2/neu peptide, position 822, 10 amino acids (peptide)
peptide: LLNWCMQIAK
B11 was tested, and the relative binding ratio [1] was 0.0086 ratio (IC50 standard/IC50 test), the relative binding ratio [2] was 0.14 ratio (IC50 standard/IC50 test) and the relative binding ratio [3] was 0.14 ratio (IC50 standard/IC50 test). For the same binder, the relative binding ratio [4] was 0.0088 ratio (IC50 standard/IC50 test) and the relative binding ratio [5] was 0.01 ratio (IC50 standard/IC50 test).

B12: HER2/neu peptide, position 948, 10 amino acids (peptide)
peptide: TIDVYMIMVK
notes: as for B3
For B12, the relative binding ratio (HLA-A*3101) was 0.0018 ratio (IC50 of standard peptide / IC50 of test peptide), the relative binding ratio (HLA-A*6801) was 0.025 ratio (IC50 of standard peptide / IC50 of test peptide) and the relative binding ratio (HLA-A*1101) was 0.12 ratio (IC50 of standard peptide / IC50 of test peptide). For the same binder, the relative binding ratio (HLA-A*0301) was 0.013 ratio (IC50 of standard peptide / IC50 of test peptide) and the relative binding ratio (HLA-A*3301) was 0.012 ratio (IC50 of standard peptide / IC50 of test peptide).

B13: HER2/neu peptide, position 840, 10 amino acids (peptide)
peptide: RLVHRDLAAR
notes: as for B3
For B13, the relative binding ratio (HLA-A*3101) was 0.95 ratio (IC50 of standard peptide / IC50 of test peptide), the relative binding ratio (HLA-A*6801) was 0.0036 ratio (IC50 of standard peptide / IC50 of test peptide) and the relative binding ratio (HLA-A*1101) was 0.0001 ratio (IC50 of standard peptide / IC50 of test peptide). For the same binder, the relative binding ratio (HLA-A*0301) was 0.18 ratio (IC50 of standard peptide / IC50 of test peptide) and the relative binding ratio (HLA-A*3301) was 0.0021 ratio (IC50 of standard peptide / IC50 of test peptide).

B14: HER2/neu peptide, position 478, 10 amino acids (peptide)
peptide: HTVPWDQLFR
notes: also called Her2/neu.478
With B14 the relative binding ratio [1] was 2 ratio (IC50 standard/IC50 test), the relative binding ratio [2] was 0.0035 ratio (IC50 standard/IC50 test) and the relative binding ratio [3] was 0.072 ratio (IC50 standard/IC50 test). The relative binding ratio [4] was 0.33 ratio (IC50 standard/IC50 test) and the relative binding ratio [5] was 0.96 ratio (IC50 standard/IC50 test).

B15: HER2/neu peptide, position 976, 10 amino acids (peptide)
peptide: FSRMARDPQR
notes: also called Her2/neu.976 (10-mer)
With B15 the relative binding ratio [7] was -0.0002 ratio (IC50 standard / IC50 test) and the relative binding ratio [8] was 0.001 ratio (IC50 standard / IC50 test).

B16: Her2/neu.508 (peptide)
peptide: GLACHQLCA
B16 gave an IC50 (HLA-A*0201) of no more than 500 nM.

B17: Her2/neu.166 (10 amino acids) (peptide)
peptide: TILWKDIFHK
notes: Synthetic A3 supermotif peptide; also called HER2/neu peptide, position 166, 10 amino acids
In the case of B17, the relative binding ratio (HLA-A*3101) is reported as 0.037 ratio (IC50 of standard peptide / IC50 of test peptide), the relative binding ratio (HLA-A*6801) is reported as 0.04 ratio (IC50 of standard peptide / IC50 of test peptide) and the relative binding ratio (HLA-A*1101) is reported as 3.6 ratio (IC50 of standard peptide / IC50 of test peptide). The relative binding ratio (HLA-A*0301) was 0.043 ratio (IC50 of standard peptide / IC50 of test peptide) and the relative binding ratio (HLA-A*3301) was 0.042 ratio (IC50 of standard peptide / IC50 of test peptide).

B18: Her2/neu.883 (peptide)
peptide: KVPIKWMALESILRR
B18 was tested, and the IC50 (HLA-DRB1*0101) was 2.3 nM.

B19: HER2/neu peptide, position 401, 11 amino acids (peptide)
peptide: ETLEEITGYLY
notes: also called Her2/neu.401
In the case of B19, the relative binding ratio (HLA-A*0101 [9]) is reported as 0.44 ratio (IC50 of standard peptide / IC50 of test peptide).

B20: HER2/neu peptide, position 423, 10 amino acids (peptide)
peptide: SVFQNLQVIR
notes: as for B3
In the case of B20, the relative binding ratio (HLA-A*3101) is reported as 0.034 ratio (IC50 of standard peptide / IC50 of test peptide), the relative binding ratio (HLA-A*6801) is reported as 0.25 ratio (IC50 of standard peptide / IC50 of test peptide) and the relative binding ratio (HLA-A*1101) is reported as 0.075 ratio (IC50 of standard peptide / IC50 of test peptide). For the same binder, the relative binding ratio (HLA-A*0301) was 0.017 ratio (IC50 of standard peptide / IC50 of test peptide) and the relative binding ratio (HLA-A*3301) was 0.039 ratio (IC50 of standard peptide / IC50 of test peptide).

B21: HER2/neu peptide, position 851, 10 amino acids (peptide)
peptide: VLVKSPNHVK
notes: as for B3
For B21, the relative binding ratio (HLA-A*3101) was 0.0052 ratio (IC50 of standard peptide / IC50 of test peptide), the relative binding ratio (HLA-A*6801) was 0.0005 ratio (IC50 of standard peptide / IC50 of test peptide) and the relative binding ratio (HLA-A*1101) was 0.0072 ratio (IC50 of standard peptide / IC50 of test peptide). For the same binder, the relative binding ratio (HLA-A*0301) was 0.082 ratio (IC50 of standard peptide / IC50 of test peptide) and the relative binding ratio (HLA-A*3301) was 0.0032 ratio (IC50 of standard peptide / IC50 of test peptide).

B22: HER2/neu peptide, position 1132, 8 amino acids (peptide)
peptide: TCSPQPEY
notes: also called Her2/neu.1132
With B22 the “relative binding ratio (IC50 of standard peptide / IC50 of test peptide)” value (HLA-A*0101 [6]) was -0.0021 ratio.
